Assay [1] relates to DSS treated mice. The assay is described as follows: DSS model: gross pathology score. It counts as in vivo, C57BL/6 mice. Conditions: 50 nmoles/kg i.p. b.i.d., 2.5% DSS 6 days; for Gross pathology compared to vehicle treated DSS mice: score 0-5. As for the experimental part: Eight-week old C57BL/6 mice were housed 5 animals were cage and given food and water ad libitum for 7 days. Following the 7-day acclimation period, treatments were initiated concurrently with addition of 2.5% DSS to the drinking water. […] The mice were treated with 2.5% dextran sodium sulfate (DSS) in their drinking water for 6 days. Treatments were continued with SG-15 or […]-GLP2 twice a day (b.i.d.) in the morning and evening (every 8 and 16 hr) with i.p. injections at 50 nmoles/kg. Fresh 2.5% DSS drinking water was prepared every 2 days. Gross pathology observations were made in mice included in the concurrent DSS model performed in Example 1E. […] The scoring system used was: (0)=no gross pathology, (1)=streaks of blood visible in feces, (2)=completely bloody fecal pellets, (3) bloody fecal material visible in cecum, (4) bloody fecal material in cecum and loose stool, (5)=rectal bleeding. Results are shown in FIG. 7, with the graph representing data pooled from the 2 individual experiments (n=20).

Assay [2] deals with IL-23. The assay is described as follows: IL-23 production by monocytes in co-culture TEER assay (Luminex). The format is cell-based, human. Conditions: for IL-23 production normalized to HK E. coli only (set to 1.0): pre-incubated 6 hours prior to HK E. coli, basolateral supernatant. Here is the method: Production of the cytokines TNF-α, IL-23, and IL-10 by monocytes was measured in the tissue culture supernatant from the basolateral chamber of the co-culture TEER assay performed in Example 1B. Following TEER readings, the supernatants were centrifuged at 10,000 g for 5 minutes at 4° C. to remove cell debris. Luminex analysis was performed according to the manufacturer's instructions (Magpix instrument and xPonent software version 4.2; Luminex Corporation (Austin, TX)). Luminex analysis was performed to determine the […] concentration of TNF-α and IL-23 produced by monocytes. Luminex analysis utilizes a bead-based system for quantification of multiple cytokines from a single sample. Like an ELISA, Luminex beads are coated with a capture antibody, and incubation with samples allows the target to bind to the capture antibody. Beads are washed and incubated with a fluorescently labeled detection antibody for quantification of bound target. Cytometric analysis is used to differentiate bead populations, which are loaded with differential fluorescent dyes, and to quantify cytokine levels by measuring detection antibody signal. TNF-α, IL-23, and IL-10 production in untreated cells and cells pre-incubated with SG-15 for 6 hours prior to HK E. coli treatment was normalized to pg/ml concentrations elicited by HK E. coli only, which was set to 1.0. […] The graphs in FIGS. 2A, 2B and 2C each represent data pooled from an individual experiment (n=3).

For assay [3], the system named is LPS binding protein (LBP). The assay is described as follows: DSS model: LPS binding protein in serum (ELISA). The format is in vivo, C57BL/6 mice. Conditions: 50 nmoles/kg i.p. b.i.d.; 2.5% DSS 6 days. Here is the method:
Eight-week old C57BL/6 mice were housed 5 animals were cage and given food and water ad libitum for 7 days. Following the 7-day acclimation period, treatments were initiated concurrently with addition of 2.5% DSS to the drinking water. […] The mice were treated with 2.5% dextran sodium sulfate (DSS) in their drinking water for 6 days. Treatments were continued with SG-15 or […]-GLP2 twice a day (b.i.d.) in the morning and evening (every 8 and 16 hr) with i.p. injections at 50 nmoles/kg. Fresh 2.5% DSS drinking water was prepared every 2 days. SG-15 was also assessed for its effects on the levels of LPS binding protein (LBP) in the blood of the DSS animal with and without SG-15 administration. LPS binding protein (LBP), which has been linked to clinical disease activity in subjects with inflammatory bowel disease, was also measured by ELISA in the serum of mice tested in the DSS model described in Example 1E. […] Results are shown in FIG. 5, and are presented as mean±SEM. The graph in FIG. 5 represents data pooled from the 2 individual experiments (n=20).

Assay [4] deals with DSS treated mice. In words: DSS model of inflammatory bowel disease: 4KDa-FITC dextran translocation across the epithelial barrier. It counts as in vivo, C57BL/6 mice. As to conditions: 50 nmoles/kg i.p. b.i.d., 2.5% DSS 6 days; for 4KDa-FITC dextran in serum compared to DSS mice treated with vehicle: day 6. As for the experimental part: Specifically, the mice in Example 1E were treated with dextran sodium sulfate (DSS), a chemical known to induce intestinal epithelial damage and thereby reduce intestinal barrier integrity and function. DSS mice are well-accepted models of colitis. In Example 1E, mice were treated with SG-15 protein approximately concurrent with (6 hours prior to) administration of DSS. The mice were then assessed for effects of SG-15 on clinically relevant markers of improved health. Eight-week old C57BL/6 mice were housed 5 animals were cage and given food and water ad libitum for 7 days. Following the 7-day acclimation period, treatments were initiated concurrently with addition of 2.5% DSS to the drinking water. […] The mice were treated with 2.5% dextran sodium sulfate (DSS) in their drinking water for 6 days. Treatments were continued with SG-15 or […]-GLP2 twice a day (b.i.d.) in the morning and evening (every 8 and 16 hr) with i.p. injections at 50 nmoles/kg. Fresh 2.5% DSS drinking water was prepared every 2 days. On day six, mice were fasted for four hours and then orally gavaged with 600 mg/kg 4 KDa dextran labeled with fluorescein isothiocyanate (FITC) [4KDa-FITC]. One hour after the 4KDa-FITC gavage mice were euthanized, blood was collected and FITC signal was measured in serum. […] Results are shown in FIG. 4, and are presented as mean±SEM. The graph in FIG. 4 represents data pooled from 2 individual experiments (n=20).

B1: SG-16: 119 amino acid protein (SEQ ID NO:9) encoded by the genome of Eubacterium eligens (protein, listed as Eubacterium eligens)
chain: MTGCSGSKEPDNKTSVDYTVVENADLPEELKKLIESKKDKVMRLTYTTKDYTYVVAGYGTRETSGYSIKVNDVYTGDNALYIDLNLIGPAAGEAVNEVETYPVIVLKMERREESVVFKM
Regarding B1, in assay [1], the “Gross pathology compared to vehicle treated DSS mice” value was “did not reduce gross pathology”. Further, the “IL-23 production normalized to HK E. coli only (set to 1.0)” value (shortened to “IL-23 production normalized”) in assay [2] turned out to be 1.06. In addition, the “LBP in serum compared to DSS mice treated with vehicle” value in assay [3] was “No change in LBP”. Besides, the “4KDa-FITC dextran in serum compared to DSS mice treated with vehicle” value in assay [4] is “significant reduction in 4KDa-FITC dextran”.

B2: SG-18: 267 amino acid protein (SEQ ID NO:19) encoded by the genome of Clostridium bartlettii sp. nov. (protein, listed as Clostridium bartlettii)
chain: EVDSSKEQATSKDEKQVVVATSVAITEILDRLGVEVSGVPQTSYELPESAKGATEIGSPMNPDMEIIKSLNPTDVICVDTLGSDFEKQFEENNINADFYNLSNVDGLKETIAALGEKFNKQDKANEILDEIKEVENKVNSNKKSDDKILVLFGAPGSVMVATDKSYIGNLVELAGGNNIFSNATSSFTQINLEEIIKLNPDKILVMTHAVPEAAKKSVEEELSKDLWKNVNAVKNNDITYLENGYFGMSANLQIVEAVEKLGDILYE
In the case of B2, the “Gross pathology compared to vehicle treated DSS mice” value in assay [1] is recorded as “did not reduce gross pathology”. In assay [2], the “IL-23 production normalized” value came out at 1.10. Also, in assay [4], the “4KDa-FITC dextran translocation compared to positive control Gly2-GLP2” value is given as “even lower than the positive control” and the “4KDa-FITC dextran in serum compared to DSS mice treated with vehicle” value is “significant reduction in 4KDa-FITC dextran”.

B3: SG-17: 327 amino acid protein (SEQ ID NO:13) encoded by the genome of Eubacterium eligens (protein, listed as Eubacterium eligens)
chain: CNSKIDVKYDYNVEDYVQLGQYENISVQVDKTSIENELIESKIKQDVEDNTTYTEVDRGAIASDQILVTYTATSSGASLSGLTNTDGKTMILGTDTLGLELDELDQALYGMTPGQTKILIVDIPEDYSSDLYKGTRVVFELTMQTVAQANVPMITNAYVKEAFGYDTVEEYRQSIKESLETDINSKVENKIQEDVLSSLQDTFKISSYPDSLMEETRSRLETSIGFYADFSNLSKDEYCQKQYGLSFDDFVKKSVVQQLIMEAIVKDRNMTMREYDYKGSLDDFAADNGYSNADTFVEKFGKDKIVKAMLVQKAQDYVIEHANISYK
As to B3, in assay [1], the “Gross pathology compared to vehicle treated DSS mice” value is on record as “did not reduce gross pathology”. In addition, the “IL-23 production normalized” value in assay [2] was determined as 1.10. In assay [3], the “Impact on LBP concentration compared to control peptide Gly2-GLP2” value is recorded as “greater impact on LBP concentration” and the “LBP in serum compared to DSS mice treated with vehicle” value was “significant reduction in LBP”. Further, in assay [4], the “4KDa-FITC dextran in serum compared to DSS mice treated with vehicle” value was “not altered”.

B4: SG-15: 400 amino acid protein (SEQ ID NO:1) encoded by the genome of Eubacterium eligens (protein, listed as Eubacterium eligens)
chain: EYTEIRTASELVEAAKSASGNYKLMTDIDMTGVEWTPWDFSGTFDGNGHSILNLSVKTVSKKTMKTYDGNRKEYKTYGAGFFGVLTGAKVTGLDIYGARIEITTTEPCFAAPIAGLADDSDISDCIIKDTYVSLTDSAKMWGTGGIAGFGSGNLDNITTDVTLVCVDTDAAVRDEQFMGGAYAAGFLNIRNCSITIDGYDSDHGYVHDGGLVGMYMVYPLELSKTYQGEVLNNKVKGMITFFEDNTDRRAYCQANMGEVMNWTYAYSGFTSDFKRNETYDYSVTLLPEMCSNPSYTDVVTEATASDFGYTTHTCSTCGYTYSDTYTIHEHKVDSYSVVKEAASTDKKDGIEAGTCSLCNQTVYREYAANVVTDDNTQATDNKASGTAVKKGMKESTAVFA
For the molecule B4, in assay [1], the “Clinical scores compared with DSS mice treated with Gly2-GLP2” value is on record as “No differences” and the “Gross pathology compared to vehicle treated DSS mice” value is “significantly improved gross pathology”. Moreover, in assay [2] (cells treated with SG-15 and HK E. coli), the “IL-23 production compared with control cells treated with media only” value was “no significant difference”. Besides, the “IL-23 production normalized” value in assay [2] worked out at 0.57. The “LBP in serum compared to DSS mice treated with vehicle” value in assay [3] is reported as “significant reduction in LBP”. Also, in assay [4], the “4KDa-FITC dextran in serum compared to DSS mice treated with vehicle” value is “significant reduction in 4KDa-FITC dextran”.

The record behind these values is patent publication US12168677B2, “Proteins for the treatment of epithelial barrier function disorders” (Genevive, Inc., priority 2017, dated 2024).
